Reference: US6037158A, “Alcohol dehydrogenase and its use for the enzymatic production of chiral hydroxy compounds” (priority 1996, dated 2000)
Read-outs that look alike come from different tables or passages of the source.

Legend:
[1] = target: T1, alcohol dehydrogenase from L. brevis (Levilactobacillus brevis, UniProt Q84EX5); experiment: biochemical; format: biochemical; details: 10 mM keto compound
T1 sequence (Q84EX5 2-252): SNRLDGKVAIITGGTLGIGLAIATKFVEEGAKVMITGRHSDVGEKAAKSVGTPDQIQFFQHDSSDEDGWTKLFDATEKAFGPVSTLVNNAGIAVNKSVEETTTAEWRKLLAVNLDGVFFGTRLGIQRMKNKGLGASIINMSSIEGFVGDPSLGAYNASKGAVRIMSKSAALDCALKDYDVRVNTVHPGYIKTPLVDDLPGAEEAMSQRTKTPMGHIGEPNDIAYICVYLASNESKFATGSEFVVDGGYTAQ
Protocol: A series of other ketones and keto esters were used instead of acetophenone and it was tested whether these can be reduced by enzyme catalysis.
The following test mixture was used for this:
970 μl triethanolamine buffer (50 mM; pH 7.0, containing 10 mM keto compound)
20 μl NADPH (0.19 mM in the test)
Some of the ketones were also tested at a concentration of 1 mM in order to verify a possible substrate inhibition at 10 mM.

[2] = target: T2, alcohol dehydrogenase from Lactobacillus brevis (Levilactobacillus brevis, UniProt Q84EX5); format: biochemical; details: l. brevis alcohol dehydrogenase, 24 h, 5000 µM, pH 7
T2 construct: same enzyme regenerates NADPH with isopropanol
T2 sequence (Q84EX5 2-252): T1 sequence (Q84EX5 2-252)
Protocol: Purified enzyme (example 2C) and the necessary coenzyme (NADP) were used for the enzyme-catalysed synthesis of (R)-phenylethanol from acetophenone. The oxidized co-enzyme was continuously regenerated by isopropanol which was simultaneously present so that the reaction only required catalytic amounts of coenzyme. In detail the mixture contained (the final concentrations of the components in the test are listed in brackets): 20 μl NADP (0.05 mM), 7.7 μl isopropanol (0.1 M), 0.6 μl acetophenone (5 mM), 921.7 μl triethanolamine buffer (50 mM; pH 7.0, containing 1 mM MgCl2) and 50 μl alcohol dehydrogenase from Lactobacillus brevis (4.5 units). This mixture with a total volume of 1 ml was incubated for 24 hours at 30° C., then a sample was analysed by means of gas chromatography. For this 100 μl was removed, shaken out with 100 μl chloroform, the phases were separated by centrifugation and an aliquot was taken from the lower phase (chloroform) for the GC.
The separation conditions for the separation of (R)- and (S)-phenylethanol on a gas chromatograph: stationary phase: Lipodex E, CD column (Macherey and Nagel, Duren), mobile phase: helium, injection volumes: 1 μl detection: FID, temperature: 110° C. Under these conditions the substrate acetophenone is eluted at 10.5 min, (S)-phenylethanol at 13.8 min and (R)-phenylethanol at 14.2 min. […]

[3] = tested on: whole cells of Lactobacillus brevis; experiment: Reduction of ketones with whole cells; format: cell-based; details: after 2 h incubation at 30° C., 10 mM acetophenone, 50 mg cells, 0.1 M glucose
Protocol: In addition ketones can be reduced to chiral alcohols using whole cells of L. brevis. […] The coenzyme regeneration can be achieved by isopropanol or by metabolizable substrates such as glucose.
Test mixture: 50 mg cells of L. brevis (wetweight after centrifugation) is suspended in 860 μl triethanolamine buffer (50 mM; pH 7.50; addition of 1 MM MgCl^2+) which contains 0.1 M glucose and 10 mM acetophenone. Samples are analysed by means of gas chromatography. […] Since a quantification by means of GC separation on a chiral stationary phase had been carried out, it was possible to show at the same time that the phenylethanol that forms is of high optical purity but no quantifiable (S)-alcohol could be detected. The optical purity is considerably >95% for (R)-alcohol.

[4] = pH stability of the alcohol dehydrogenase (30 min incubation, then standard acetophenone test); format: physicochemical; details: for Activity: 30 min
Protocol: The dependence of the activity of the enzyme when stored in buffers with various pH values was examined in the range of pH 4 to 11. Depending on the buffer capacity various buffers in the pH range of 4 to 11 were prepared and the homogeneous enzyme was incubated therein for 30 minutes. 1 μl thereof was removed and added to the normal test reagent mixture of 970 μl triethanolamine buffer (100 mM; pH 7.0 containing 11 mM acetophenone) and 20 μl NADPH (final concentration 0.19 mM). The reaction was monitored for 1 minute at 30° C. and 340 nm.

[5] = Standard enzyme test of purified enzyme (acetophenone, NADPH); format: biochemical
Protocol: The process for the isolation and purification of the ADH enzyme proceeds essentially via the following process steps: disruption of the cultured cells, such as by glass beads, carrying out hydrophobic chromatography or interaction chromatography and followed by subsequent anion exchange and affinity chromatography. In particular it has proven to be advantageous when all homogenization and elution buffers contain from about 0.5 to about 5 mM magnesium. In this connection a Mg^2+ concentration of about 1 mM has proven to be particularly advantageous. In this manner an enzyme is obtained which has a specific activity of at least 400 U/mg and in many cases up to 500 U/mg.
The enzyme was released from the cells by wet-grinding with the aid of glass beads (0.3 mm), but can also be achieved by any other method for disrupting bacterial cells. The bacterial mass is diluted to a 40% suspension with 0.1 M acetate buffer pH 4.0+1 mM MgCl2 supplemented with an antifoaming agent (polypropylene glycol). This was subjected to a 20 minute disruption while cooling continuously in a disintegrator (IMA Co.) at 4000 rpm with addition of glass beads in a ratio of 1:2. 8 g bacteria yielded 10 ml crude extract with a volume activity of 40 U/ml and a protein content of ca. 3 mg/ml. […]

[6] = Temperature stability of the alcohol dehydrogenase (30 min at temperature, measured at 30° C.); format: physicochemical; details: for temperature of maximum stability: 30 min
Protocol: The temperature stability in the range of 25 to 70° C. was determined in an analogous manner to that described under A. The homogeneous enzyme solution was subjected for 30 min to the recited temperatures and subsequently measured directly at 30° C. with the above test mixture. […] In contrast the ADH from L. kefir is only stable up to 40° C. with a maximum at 37° C., afterwards the activity decreases rapidly. The maximum for this enzyme is at 37° C.

[7] = Temperature optimum of enzyme activity; format: biochemical
[8] = listed as enzyme according to the invention

Molecule: CC(=O)c1ccccc1 [acetophenone]
- Activity ([1]; 0.19 mM NADPH, pH 7.0, purified enzyme diluted 1:10): 3.26 U/ml
- activity at 10000 µM ([1]; relative to acetophenone = 100, read-out: Relative act.): 100%
- substrate converted [2]: more than 95%
- substrate remaining (GC) [3]: no longer detectable

B1: alcohol dehydrogenase from Lactobacillus brevis: stable R-specific NADP-dependent alcohol dehydrogenase purified to homogeneity from Lactobacillus brevis DSM 20054 (protein)
chain: MSNRLDGKVAIITGGTLGIGLAIATKFVEEGAKVMITGRHSDVGEKAAKSVGTPDQIQFFQHDSSDEDGWTKLFDATEKAFGPVSTLVNNAGIAVNKSVEETTTAEWRKLLAVNLDGVFFGTRLGIQRMKNKGLGASIINMSSIEGFVGDPSLGAYNASKGAVRIMSKSAALDCALKDYDVRVNTVHPGYIKTPLVDDLPGAEEAMSQRTKTPMGHIAEPNDIAYICVYLASNESKFATGSEFVVDGGYTAQ
- Activity ([4]; pH 4.0, Na acetate/acetic acid): 6.86 U/ml
- pH value of maximum stability (larger maximum) ([4]; pH 4 to 11, 30 min): 9.0
- pH value of the smaller maximum of pH stability ([4]; pH 4 to 11, 30 min): 5.5
- pH value of maximum stability (larger maximum) ([4]; pH 4 to 11, 30 min, listed as ADHs according to the invention): about 9.0
- Activity ([4]; pH 4.5, Na acetate/acetic acid): 6.22 U/ml
- Activity ([4]; pH 5.0, MES/NaOH): 7.04 U/ml
- Activity ([4]; pH 5.5, MES/MaOH): 8.73 U/ml
- Activity ([4]; pH 6.0, triethanolamine/NaOH): 5.58 U/ml
- Activity ([4]; pH 6.5, triethanolamine/NaOH): 5.80 U/ml
- Activity ([4]; pH 7.0, triethanolamine/NaOH): 6.57 U/ml
- Activity ([4]; pH 7.5, Tris/HCl): 5.04 U/ml
- Activity ([4]; pH 8.0, Tris/HCl): 3.83 U/ml
- Activity ([4]; pH 8.5, Tris/HCl): 8.42 U/ml
- Activity ([4]; pH 9.0, Tris/HCl): 17.11 U/ml
- Activity ([4]; pH 10.0, glycine/NaOH): 1.25 U/ml
- Activity ([4]; pH 11.0, glycine/NaOH): 2.43 U/ml
- specific activity [5]: at least 400 U/mg
- temperature at which the enzyme is inactivated by 50% (thermal deactivation) [6]: about 65 °C
- retained activity ([6]; 50 mM MES buffer, about 30 minutes, between 25° C. and 60° C.): over 95%
- temperature of maximum stability [6]: 40 °C
- temperature of maximum stability [6, 8]: ca. 40 °C
- act. (temperature stability) ([6]; 30 min at 25° C.): 9.43 U/ml
- act. (temperature stability) ([6]; 30 min at 30° C.): 8.74 U/ml
- act. (temperature stability) ([6]; 30 min at 37° C.): 12.06 U/ml
- act. (temperature stability) ([6]; 30 min at 40° C.): 12.15 U/ml
- act. (temperature stability) ([6]; 30 min at 42° C.): 11.16 U/ml
- act. (temperature stability) ([6]; 30 min at 45° C.): 10.81 U/ml
- act. (temperature stability) ([6]; 30 min at 47° C.): 8.23 U/ml
- act. (temperature stability) ([6]; 30 min at 50° C.): 8.37 U/ml
- act. (temperature stability) ([6]; 30 min at 60° C.): 8.51 U/ml
- act. (temperature stability) ([6]; 30 min at 70° C.): 0.56 U/ml
- optimal test temperature (activity maximum) [7]: 50 °C
- optimal test temperature (activity maximum) [7, 8]: ca. 50 °C
- act. (temperature optimum) ([7]; test temperature 25° C.): 10.31 U/ml
- act. (temperature optimum) ([7]; test temperature 30° C.): 9.66 U/ml
- act. (temperature optimum) ([7]; test temperature 37° C.): 9.76 U/ml
- act. (temperature optimum) ([7]; test temperature 40° C.): 17.78 U/ml
- act. (temperature optimum) ([7]; test temperature 42° C.): 16.93 U/ml
- act. (temperature optimum) ([7]; test temperature 45° C.): 18.06 U/ml
- act. (temperature optimum) ([7]; test temperature 47° C.): 19.13 U/ml
- act. (temperature optimum) ([7]; test temperature 50° C.): 31.46 U/ml
- act. (temperature optimum) ([7]; test temperature 55° C.): 24.48 U/ml
- act. (temperature optimum) ([7]; test temperature 60° C.): 23.69 U/ml
- act. (temperature optimum) ([7]; test temperature 65° C.): 1.98 U/ml
- act. (temperature optimum) ([7]; test temperature 70° C.): 0.58 U/ml
